Literature values in article PMC4113456, “Atypical Signaling and Functional Desensitization Response of MAS Receptor to Peptide Ligands” (PLoS ONE, 2014).

Target: T1, MAS (Homo sapiens, UniProt P04201)
T1 construct: expressed in transfected cells
T1 sequence (P04201 1-325): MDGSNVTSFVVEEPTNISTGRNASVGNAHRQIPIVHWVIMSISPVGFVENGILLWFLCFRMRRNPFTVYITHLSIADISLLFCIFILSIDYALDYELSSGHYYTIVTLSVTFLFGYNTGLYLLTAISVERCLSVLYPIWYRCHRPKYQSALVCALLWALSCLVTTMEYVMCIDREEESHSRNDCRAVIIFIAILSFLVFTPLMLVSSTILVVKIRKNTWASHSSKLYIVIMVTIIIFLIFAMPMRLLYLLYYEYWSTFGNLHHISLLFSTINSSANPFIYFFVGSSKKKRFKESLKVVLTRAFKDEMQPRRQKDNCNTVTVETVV
Set-up: method as in ref [4] (a number printed in a supplementary file, which may have a reference list of its own: not looked up in the article's list)
Conditions: ref [4]; cited from earlier work

In the case of “Angioprotectin: physiological ligand, sequence PEVYIHPF”, the “Effect in aortic rings” value is given as “Vasodilator effect in aortic rings”.
